± gives the uncertainty stated by the source.
Test: self-splicing fitness, log relative to wild type (ln ratio); higher = more splicing; Tetrahymena group I intron in knt gene, E. coli kanamycin selection, DiMSum; sequences stand for … in CUCUCU…GGAGGGAAAAGUUAUCAGGCAUGCACCUGGUAGCUAGUCUUUAAACCAAUAGAUUGCAUCGGUUUAAAAGGCAAGACCGUCAAAUUGCGGGAAAGGGGUCAACAGCCGUUCAGUACCAAGUCUCAGGGGAAACUUUGAGAUGGCCUUGCAAAGGGUAUGGUAAUAAGCUGACGGACAUGGUCCUAACCACGCAGCCAAGUCCUAAGUCAACAGAUCUUCUGUUGAUAUGGAUGCAGUUCACAGACUAAAUGUCGGUCGGGGAAGAUGUAUUCUUCUCAUAAGAUAUAGUCGGACCUCUCCUUAAUGGGAGCUAGCGGAUGAAGUGAUGCAACACUGGAGCCGCUGGGAACUAAUUUGUAUGCGAAAGUAUAUUGAUUAGUUUUGGAGUACUCGUGGUCG
Method in brief: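 Fitness was computed with DiMSum as the error-weighted combination of replicate fold changes, kanamycin versus none, each normalised to wild type. The library randomised all eight intron nucleotides of the P1ex region, with the intron placed in the knt kanamycin-resistance gene on pET-22b(+) in E. coli BL21(DE3). Six replicate transformations were grown overnight at 37°C or 30°C on LB agar with or without 25 μg/mL kanamycin, plus 100 μg/mL carbenicillin, 50 μM IPTG and 0.2% rhamnose. Pooled colonies were amplicon-sequenced on an Illumina HiSeq 2500.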

## AAAAAGCAAUAUUACGGAGA
30 °C
  self-splicing fitness (ln): -3.49 ± 0.19
37 °C
  self-splicing fitness (ln): -3.11 ± 0.18

## ACCUAGCAAUAUUACGAACA
30 °C
  self-splicing fitness (ln): -2.24 ± 0.29
37 °C
  self-splicing fitness (ln): 0.383 ± 0.2

## GUCAAGCAAUAUUACGUCGC
30 °C
  self-splicing fitness (ln): -3.74 ± 0.21
37 °C
  self-splicing fitness (ln): -2.13 ± 0.19

## GAAGAGCAAUAUUACGGAUU
30 °C
  self-splicing fitness (ln): -2.29 ± 0.15
37 °C
  self-splicing fitness (ln): -1.79 ± 0.19

## CCCGAGCAAUAUUACGGUAC
30 °C
  self-splicing fitness (ln): -4.04 ± 0.22
37 °C
  self-splicing fitness (ln): -2.85 ± 0.21

## UUCCAGCAAUAUUACGAAAU
30 °C
  self-splicing fitness (ln): -2.78 ± 0.36
37 °C
  self-splicing fitness (ln): -1.58 ± 0.32

## CGUCAGCAAUAUUACGCUCU
30 °C
  self-splicing fitness (ln): -1.14 ± 0.12
37 °C
  self-splicing fitness (ln): -0.257 ± 0.12

## ACUUAGCAAUAUUACGGGGG
30 °C
  self-splicing fitness (ln): -2.98 ± 0.23
37 °C
  self-splicing fitness (ln): -1.96 ± 0.21

## GGAUAGCAAUAUUACGGGCG
30 °C
  self-splicing fitness (ln): -1.69 ± 0.13
37 °C
  self-splicing fitness (ln): -0.955 ± 0.094

## CCCAAGCAAUAUUACGCACU
30 °C
  self-splicing fitness (ln): -3.57 ± 0.19
37 °C
  self-splicing fitness (ln): -2.72 ± 0.25

## CUUAAGCAAUAUUACGCAGA
30 °C
  self-splicing fitness (ln): -3.41 ± 0.36
37 °C
  self-splicing fitness (ln): -1.93 ± 0.24

## GAACAGCAAUAUUACGCAAG
30 °C
  self-splicing fitness (ln): -3.31 ± 0.23
37 °C
  self-splicing fitness (ln): -1.41 ± 0.17

## CUGAAGCAAUAUUACGCGCG
30 °C
  self-splicing fitness (ln): 0.18 ± 0.092
37 °C
  self-splicing fitness (ln): -0.0678 ± 0.075

## CUCUAGCAAUAUUACGCGAG
30 °C
  self-splicing fitness (ln): -3.63 ± 0.25
37 °C
  self-splicing fitness (ln): -3.28 ± 0.37

## CAUAAGCAAUAUUACGAUAU
30 °C
  self-splicing fitness (ln): -3.41 ± 0.28
37 °C
  self-splicing fitness (ln): -2.86 ± 0.32

## GCAAAGCAAUAUUACGGAUC
30 °C
  self-splicing fitness (ln): -1.26 ± 0.073
37 °C
  self-splicing fitness (ln): -0.379 ± 0.085

## UUAUAGCAAUAUUACGUUCU
30 °C
  self-splicing fitness (ln): -2.18 ± 0.15
37 °C
  self-splicing fitness (ln): -1.11 ± 0.16

## UCGCAGCAAUAUUACGUGAC
30 °C
  self-splicing fitness (ln): -5.1 ± 0.38
37 °C
  self-splicing fitness (ln): -2.41 ± 0.26

## CCACAGCAAUAUUACGGCCA
30 °C
  self-splicing fitness (ln): -3.79 ± 0.29
37 °C
  self-splicing fitness (ln): -2.75 ± 0.27

## AAUAAGCAAUAUUACGGUUU
30 °C
  self-splicing fitness (ln): -0.628 ± 0.064
37 °C
  self-splicing fitness (ln): -0.165 ± 0.092

## UUUCAGCAAUAUUACGAUCU
30 °C
  self-splicing fitness (ln): -2.25 ± 0.19
37 °C
  self-splicing fitness (ln): -0.561 ± 0.17

## AACCAGCAAUAUUACGGGCU
30 °C
  self-splicing fitness (ln): -2.19 ± 0.093
37 °C
  self-splicing fitness (ln): -1.71 ± 0.1

## UCUAAGCAAUAUUACGGUCU
30 °C
  self-splicing fitness (ln): -3.41 ± 0.21
37 °C
  self-splicing fitness (ln): -3.34 ± 0.31

## CCUAAGCAAUAUUACGAUCC
30 °C
  self-splicing fitness (ln): -3.83 ± 0.29

## AGCGAGCAAUAUUACGCAUA
37 °C
  self-splicing fitness (ln): -1.77 ± 0.24

## GCUCAGCAAUAUUACGGGUU
30 °C
  self-splicing fitness (ln): -1.29 ± 0.1
37 °C
  self-splicing fitness (ln): -1.09 ± 0.1

## UACGAGCAAUAUUACGUGGG
30 °C
  self-splicing fitness (ln): -3.25 ± 0.14
37 °C
  self-splicing fitness (ln): -2.88 ± 0.19

## UGGCAGCAAUAUUACGUUGA
30 °C
  self-splicing fitness (ln): -1.43 ± 0.13
37 °C
  self-splicing fitness (ln): -0.707 ± 0.14

## UCGGAGCAAUAUUACGGUGU
30 °C
  self-splicing fitness (ln): -3.4 ± 0.31
37 °C
  self-splicing fitness (ln): -1.7 ± 0.37

## GCGUAGCAAUAUUACGUGAA
30 °C
  self-splicing fitness (ln): -2.92 ± 0.15
37 °C
  self-splicing fitness (ln): -1.49 ± 0.13

## ACACAGCAAUAUUACGUCGG
30 °C
  self-splicing fitness (ln): -1.65 ± 0.052
37 °C
  self-splicing fitness (ln): -1.16 ± 0.071

## UCUAAGCAAUAUUACGAUUC
30 °C
  self-splicing fitness (ln): -3.14 ± 0.16
37 °C
  self-splicing fitness (ln): -2.83 ± 0.23

## CUCAAGCAAUAUUACGCUGA
30 °C
  self-splicing fitness (ln): -3.13 ± 0.18
37 °C
  self-splicing fitness (ln): -2.41 ± 0.2

## GCCUAGCAAUAUUACGAACA
30 °C
  self-splicing fitness (ln): -2.17 ± 0.22
37 °C
  self-splicing fitness (ln): -1.03 ± 0.19

From the supplement of paper PMC7877785
